Results taken from patent publication US5827666A, “Synthetic multiple tandem repeat mucin and mucin-like peptides, and uses thereof” (priority 1994, dated 1998).

Experiment: circular dichroism at 25-90° C.
Format: physicochemical
Settings: 0.01M phosphate buffer pH 7.2

TITPPQAMGPNLVLPDQKPPSRQSQTGSKVATQRPQTNESAPRSVAPTTVGPKRIGTGDR (TITPPQAMGPNLVLPDQKPPSRQSQTGSKVATQRPQTNESAPRSVAPTTVGPKRIGTGDR) [PRN60, 60 amino acid proline-rich domain of feline leukemia virus gp-70]
decrease of CD intensity at 198 nm at 90° C. as compared to 25° C.: 29%
